This note sets out measurements from doi:10.1101/2020.06.19.161133, “Structure of the yeast Nup84-Nup133 complex details flexibility and reveals universal conservation of the membrane anchoring ALPS motif” (bioRxiv, 2020).

Settings in all cases: both partners purified
Assay [1] has as its target T1, Nup133 N-terminal domain (Nup133NTD, residues 55-481) (S. cerevisiae, UniProt P36161).
T1 construct: Nup133, S. cerevisiae, N-terminal beta-propeller, residues 55-481; The tag is 3C-cleavable; also called scNup133NTD; WT-Nup133NTD; source: E. coli LOBSTR-RIL(DE3), purified (Ni Sepharose, Superdex 75)
Briefly: crystal structure; Nup133NTD-VHH-SAN4, 2.1 Å, molecular replacement; crystals at 18 °C, PEG 3,350, ammonium sulfate, Bis-Tris/HCl pH 5.5.

Assay [2] concerns the target T2, Nup84 (full-length, S. cerevisiae) (S. cerevisiae, UniProt P52891).
T2 construct: Nup84, S. cerevisiae, full length; The tag is 3C-cleavable; also called scNup84
The experiment in a line: crystal structure; Nup84-Nup133CTD-VHH-SAN8, 6.4 Å, SAD with a polyoxotungstate derivative; crystals at 18 °C, PEG 8,000, ethylene glycol, imidazole/MES pH 6.5.

In assay [3] the target is T3, Nup84-Nup133CTD heterodimeric complex (Saccharomyces cerevisiae (strain ATCC …, UniProt P52891;P36161)).
T3 construct: Nup84, S. cerevisiae, full length; source: E. coli LOBSTR-RIL(DE3), co-expressed from a bicistronic vector, purified (Ni Sepharose, SP Sepharose, Superdex 200)
T3 sequence (P52891 whole entry, chain 1 of 2): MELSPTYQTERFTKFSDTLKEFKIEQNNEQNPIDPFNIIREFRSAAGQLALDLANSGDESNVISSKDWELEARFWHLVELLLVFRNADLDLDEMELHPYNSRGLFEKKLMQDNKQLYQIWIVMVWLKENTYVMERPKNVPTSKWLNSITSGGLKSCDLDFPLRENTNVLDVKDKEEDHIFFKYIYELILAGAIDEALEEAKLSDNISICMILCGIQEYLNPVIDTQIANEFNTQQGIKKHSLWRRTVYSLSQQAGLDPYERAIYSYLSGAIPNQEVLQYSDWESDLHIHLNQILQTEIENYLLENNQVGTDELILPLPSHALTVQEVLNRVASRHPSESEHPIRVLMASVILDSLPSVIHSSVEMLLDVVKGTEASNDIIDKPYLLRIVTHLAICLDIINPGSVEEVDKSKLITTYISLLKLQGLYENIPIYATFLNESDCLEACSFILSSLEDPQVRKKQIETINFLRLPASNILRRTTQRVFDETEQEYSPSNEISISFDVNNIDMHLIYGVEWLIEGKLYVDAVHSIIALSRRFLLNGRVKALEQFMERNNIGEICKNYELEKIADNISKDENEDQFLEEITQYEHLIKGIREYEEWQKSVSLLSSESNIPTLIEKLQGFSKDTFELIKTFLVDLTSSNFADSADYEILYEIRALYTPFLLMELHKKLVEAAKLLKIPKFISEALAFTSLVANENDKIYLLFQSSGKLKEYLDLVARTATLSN
T3 sequence (P36161 521-1157, chain 2 of 2): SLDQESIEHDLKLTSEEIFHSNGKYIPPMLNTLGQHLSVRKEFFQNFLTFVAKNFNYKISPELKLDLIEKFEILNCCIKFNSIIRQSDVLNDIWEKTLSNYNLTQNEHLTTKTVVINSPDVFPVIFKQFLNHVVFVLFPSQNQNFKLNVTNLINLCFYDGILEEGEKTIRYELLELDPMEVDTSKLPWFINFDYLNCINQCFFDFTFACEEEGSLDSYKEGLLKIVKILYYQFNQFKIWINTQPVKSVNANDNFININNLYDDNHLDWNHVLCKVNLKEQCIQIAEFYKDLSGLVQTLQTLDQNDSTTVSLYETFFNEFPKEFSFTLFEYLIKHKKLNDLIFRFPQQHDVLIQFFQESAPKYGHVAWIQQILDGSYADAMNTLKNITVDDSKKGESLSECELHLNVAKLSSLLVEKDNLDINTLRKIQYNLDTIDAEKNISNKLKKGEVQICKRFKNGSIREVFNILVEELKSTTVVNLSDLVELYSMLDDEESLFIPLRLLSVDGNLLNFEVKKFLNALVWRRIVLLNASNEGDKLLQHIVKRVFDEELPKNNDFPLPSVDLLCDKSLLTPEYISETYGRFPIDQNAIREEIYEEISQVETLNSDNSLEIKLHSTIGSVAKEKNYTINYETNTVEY
Described as above.

Assay [4] deals with T1, Nup133 N-terminal domain (Nup133NTD, …). Briefly: crystal structure; Nup133NTD-VHH-SAN5, 2.8 Å, molecular replacement; six copies in the asymmetric unit; crystals at 18 °C, PEG MME 2,000, potassium chloride, Tris/HCl pH 8.
In assay [5] the target is T2, Nup84 (full-length, S. cerevisiae). Briefly: crystal structure; Nup84-Nup133CTD with VHH-SAN8 and VHH-SAN9, 7.4 Å; same crystal form and conditions as the singly bound complex.
Assay [6] has as its target T3, Nup84-Nup133CTD heterodimeric complex. The description is as above.

T2 sequence (P52891 whole entry): as the sequence (P52891 whole entry, chain 1 of 2) above
T1 sequence (P36161 55-481): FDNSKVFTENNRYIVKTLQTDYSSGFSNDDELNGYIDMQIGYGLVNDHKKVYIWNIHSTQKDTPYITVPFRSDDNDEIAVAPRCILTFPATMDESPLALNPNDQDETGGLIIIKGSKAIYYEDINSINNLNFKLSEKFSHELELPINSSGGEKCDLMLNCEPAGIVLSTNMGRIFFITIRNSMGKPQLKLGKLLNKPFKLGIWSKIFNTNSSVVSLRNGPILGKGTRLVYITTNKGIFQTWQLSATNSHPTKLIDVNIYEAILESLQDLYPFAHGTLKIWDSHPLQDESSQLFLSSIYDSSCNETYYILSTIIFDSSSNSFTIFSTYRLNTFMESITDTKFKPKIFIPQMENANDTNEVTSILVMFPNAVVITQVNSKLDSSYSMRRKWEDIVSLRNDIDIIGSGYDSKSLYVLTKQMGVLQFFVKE

B1: VHH-SAN4 (VHH)
VHH: QLQLVESGGGSVQAGGSLTLSCTASESISKRIHGIGWFRQRRGEQREEIAYITTGGRPNLGDSVKDRFTISRDKSNGTVYLQMNSLKPEDTAVYYCHGRGRWWGTEGRLDYWGQGTQVTVSS
notes: structure deposited as PDB 6X05 (2.1 Å, nanobody chain); Selected by phage display from an alpaca immunised with the full-length Y complex, panned against Nup133NTD; also called nanobody VHH-SAN4; source: E. coli, purified (Ni Sepharose, tag cut with SEN-p protease, Superdex 75); not shown: 14xHis bdSUMO, N-terminal, cleaved
Turning to B1, the binding result in assay [1] was “binds”.

B2: VHH-SAN8 (VHH)
VHH: QLQLVETGGGLVQAGGSLRLSCVASGRTFTSYAMGWFRQAPGKEREFVAAISRLASGTDYADSVKGRFTISRNNDKNTVYLQMNNLIPEDTAVYYCAALQALRFSLPIAMATMKNGRADSWGQGTQVTVSS
notes: structure deposited as PDB 6X02 and 6X03 (the model is a generic nanobody without CDRs, PDB 1BZQ, placed as a rigid body); Selected by phage display from an alpaca immunised with the full-length Y complex, panned against Nup84; also called VHH8; nanobody VHH-SAN8; source: E. coli, purified (Ni Sepharose, tag cut with SEN-p protease, Superdex 75); not shown: 14xHis bdSUMO, N-terminal, cleaved
Turning to B2, the binding result in assay [2] and in assay [3] was “binds” throughout.

B3: VHH-SAN5 (VHH)
VHH: QVQLVESGGGLVQAGGSLRLSCAASGSIGSLDAMAWYRRAPGKQRERVASISRYGTYYVDSVKGRFTISRDNAKNTVYLQMNSLKPEDTGVYYCKGVMEVGGVIDEYWGQGTQVTVSS
notes: structure deposited as PDB 6X04 (2.8 Å, nanobody chains); Selected by phage display from an alpaca immunised with the full-length Y complex, panned against Nup133NTD; also called nanobody VHH-SAN5; source: E. coli, purified (Ni Sepharose, tag cut with SEN-p protease, Superdex 75); not shown: 14xHis bdSUMO, N-terminal, cleaved
As to B3, the binding result in assay [4] is listed as “binds”.

B4: VHH-SAN9 (VHH)
VHH: QVQLVESGGGSVQAGGSLRLSCAVSGGTLSTLAMGWFRQAPGQEREFVARIGWTNGDTGYADSVKGRFTISRDNVKNTVYLQMNNLKPEDTALYYCATRRPYGSTLYPPNTESAHDNWGQGTQVTVSS
notes: structure deposited as PDB 6X03 (the model is a nanobody without CDRs placed as a rigid body); Selected by phage display from an alpaca immunised with the full-length Y complex; also called VHH9; nanobody VHH-SAN9; source: E. coli, purified (Ni Sepharose, tag cut with SEN-p protease, Superdex 75); not shown: 14xHis bdSUMO, N-terminal, cleaved
Turning to B4, the binding result in assay [5] and in assay [6] was “binds” each time.
